Holding throughout (test): SPR, KD relative to WT C2;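 further: biacore SPR at 37 °C, anti-C2 mAbs captured via immobilised goat anti-human IgG, C2 alanine or serine surface mutants as analytes, 1:1 model fitted, double-referenced sensograms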
In general terms: SPR reads the build-up and loss of mass on a sensor chip optically.

The target of one assay is T1, human C2 G414A (human, UniProt P06681 21-752).
T1 sequence: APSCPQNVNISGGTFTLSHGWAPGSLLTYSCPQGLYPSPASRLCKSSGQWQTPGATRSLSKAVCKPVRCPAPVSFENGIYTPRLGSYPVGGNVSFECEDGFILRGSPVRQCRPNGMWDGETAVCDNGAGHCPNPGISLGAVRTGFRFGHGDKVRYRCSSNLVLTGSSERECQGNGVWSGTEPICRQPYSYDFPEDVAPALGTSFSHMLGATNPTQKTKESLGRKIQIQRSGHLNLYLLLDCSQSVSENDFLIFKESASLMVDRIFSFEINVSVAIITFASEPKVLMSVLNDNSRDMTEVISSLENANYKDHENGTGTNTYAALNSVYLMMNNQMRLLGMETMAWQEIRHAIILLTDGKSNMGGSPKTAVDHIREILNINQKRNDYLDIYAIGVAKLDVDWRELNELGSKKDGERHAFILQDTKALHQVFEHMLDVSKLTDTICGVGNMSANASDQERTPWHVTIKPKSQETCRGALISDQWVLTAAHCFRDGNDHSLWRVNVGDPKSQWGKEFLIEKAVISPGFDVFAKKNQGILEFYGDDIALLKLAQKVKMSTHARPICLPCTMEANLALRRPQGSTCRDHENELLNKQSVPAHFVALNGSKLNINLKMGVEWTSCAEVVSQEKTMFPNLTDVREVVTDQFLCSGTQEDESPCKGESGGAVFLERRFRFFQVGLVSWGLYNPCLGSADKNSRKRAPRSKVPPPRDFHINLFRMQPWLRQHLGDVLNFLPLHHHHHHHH

The target of the next assay is T2, human C2 L701A (human, UniProt P06681 21-752).
T2 sequence: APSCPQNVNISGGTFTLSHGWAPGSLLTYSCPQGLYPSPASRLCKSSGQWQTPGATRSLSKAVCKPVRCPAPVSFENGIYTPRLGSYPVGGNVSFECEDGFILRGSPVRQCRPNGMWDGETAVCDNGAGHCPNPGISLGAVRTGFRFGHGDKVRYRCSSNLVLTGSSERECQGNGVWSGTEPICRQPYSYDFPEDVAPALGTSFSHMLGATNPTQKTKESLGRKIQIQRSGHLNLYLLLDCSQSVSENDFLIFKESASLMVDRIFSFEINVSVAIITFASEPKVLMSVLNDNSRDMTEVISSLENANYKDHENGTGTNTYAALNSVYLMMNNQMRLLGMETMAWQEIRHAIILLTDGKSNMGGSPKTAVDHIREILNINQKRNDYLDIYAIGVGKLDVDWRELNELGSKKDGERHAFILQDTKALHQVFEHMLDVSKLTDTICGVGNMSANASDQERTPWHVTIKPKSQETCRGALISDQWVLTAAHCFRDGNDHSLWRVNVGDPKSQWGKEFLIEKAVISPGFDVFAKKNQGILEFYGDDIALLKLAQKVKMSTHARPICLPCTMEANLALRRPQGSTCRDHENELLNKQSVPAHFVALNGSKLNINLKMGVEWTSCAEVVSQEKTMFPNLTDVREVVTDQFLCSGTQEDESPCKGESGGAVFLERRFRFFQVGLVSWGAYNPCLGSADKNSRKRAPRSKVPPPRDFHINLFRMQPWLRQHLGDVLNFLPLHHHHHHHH

The next assay addresses T3, human C2 E450A (human, UniProt P06681 21-752).
T3 sequence: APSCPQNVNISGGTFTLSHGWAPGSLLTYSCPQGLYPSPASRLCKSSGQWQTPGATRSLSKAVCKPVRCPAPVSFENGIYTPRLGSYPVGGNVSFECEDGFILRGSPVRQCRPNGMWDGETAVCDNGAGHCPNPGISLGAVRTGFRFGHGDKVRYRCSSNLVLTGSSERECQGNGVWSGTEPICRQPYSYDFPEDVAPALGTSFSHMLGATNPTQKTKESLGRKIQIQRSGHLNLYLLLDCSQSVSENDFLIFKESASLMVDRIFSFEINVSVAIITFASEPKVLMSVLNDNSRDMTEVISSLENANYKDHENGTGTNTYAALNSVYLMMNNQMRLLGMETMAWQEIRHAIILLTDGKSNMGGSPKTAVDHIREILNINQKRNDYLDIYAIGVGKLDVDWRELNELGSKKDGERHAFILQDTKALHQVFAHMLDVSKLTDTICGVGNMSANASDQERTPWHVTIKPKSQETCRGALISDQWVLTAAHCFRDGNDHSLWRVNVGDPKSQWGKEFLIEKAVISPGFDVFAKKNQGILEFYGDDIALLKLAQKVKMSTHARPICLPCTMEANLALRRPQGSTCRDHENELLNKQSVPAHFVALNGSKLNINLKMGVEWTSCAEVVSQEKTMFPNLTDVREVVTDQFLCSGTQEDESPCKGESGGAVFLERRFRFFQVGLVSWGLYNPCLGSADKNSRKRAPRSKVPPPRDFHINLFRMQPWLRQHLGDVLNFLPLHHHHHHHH

Another assay concerns the target T4, human C2 D441A (human, UniProt P06681 21-752).
T4 sequence: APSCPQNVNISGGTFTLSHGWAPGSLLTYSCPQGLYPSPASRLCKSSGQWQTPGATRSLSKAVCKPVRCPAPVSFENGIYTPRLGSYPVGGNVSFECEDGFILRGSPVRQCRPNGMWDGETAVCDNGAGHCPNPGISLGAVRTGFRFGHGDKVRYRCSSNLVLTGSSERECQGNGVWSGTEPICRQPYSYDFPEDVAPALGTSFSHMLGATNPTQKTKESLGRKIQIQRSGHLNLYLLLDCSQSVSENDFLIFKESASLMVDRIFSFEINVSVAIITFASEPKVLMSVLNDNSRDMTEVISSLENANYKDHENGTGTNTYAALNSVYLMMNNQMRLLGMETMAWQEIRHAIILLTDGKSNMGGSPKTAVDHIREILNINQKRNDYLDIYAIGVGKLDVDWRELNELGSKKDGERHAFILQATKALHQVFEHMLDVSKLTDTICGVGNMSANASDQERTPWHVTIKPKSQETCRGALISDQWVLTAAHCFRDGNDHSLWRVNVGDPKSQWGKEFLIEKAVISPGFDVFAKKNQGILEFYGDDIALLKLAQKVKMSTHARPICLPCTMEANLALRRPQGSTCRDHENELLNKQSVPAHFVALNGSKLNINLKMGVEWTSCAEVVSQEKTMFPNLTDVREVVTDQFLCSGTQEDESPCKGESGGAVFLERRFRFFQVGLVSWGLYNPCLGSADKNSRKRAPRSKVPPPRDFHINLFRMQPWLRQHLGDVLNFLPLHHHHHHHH

Our source for the Fold diff values is US20220332804A1 (CSL INNOVATION, published 2022).

B1: RF16-226 (antibody, human IgG4 S228P, lambda)
heavy: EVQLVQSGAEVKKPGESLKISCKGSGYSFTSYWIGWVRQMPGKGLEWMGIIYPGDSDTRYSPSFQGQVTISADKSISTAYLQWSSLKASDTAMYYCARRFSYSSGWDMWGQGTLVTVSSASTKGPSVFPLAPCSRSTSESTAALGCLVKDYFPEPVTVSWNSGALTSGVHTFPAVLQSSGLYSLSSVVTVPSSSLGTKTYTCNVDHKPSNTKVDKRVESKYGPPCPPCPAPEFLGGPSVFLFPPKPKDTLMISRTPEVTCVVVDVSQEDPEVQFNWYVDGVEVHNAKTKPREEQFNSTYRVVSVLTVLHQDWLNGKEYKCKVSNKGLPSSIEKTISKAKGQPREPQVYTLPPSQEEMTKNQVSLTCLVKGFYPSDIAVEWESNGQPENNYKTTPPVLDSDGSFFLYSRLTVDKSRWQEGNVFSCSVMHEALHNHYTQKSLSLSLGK
light: SYELTQPPSVSVSPGQTARITCSGDALTSKYVAWYQQKSGLAPLLVIYEDTRRPSGIPAKFSGSSSGSVATLTISGAHGDDEADYYCYSTDASGHQRVFGGGTKLTVLSQPKAAPSVTLFPPSSEELQANKATLVCLISDFYPGAVTVAWKADGSPVKAGVETTKPSKQSNNKYAASSYLSLTPEQWKSHRSYSCQVTHEGSTVEKTVAPTECS
notes: pH-dependent anti-C2 antibody from a phage display library; also called WT
For the molecule B1, the Fold diff with human C2 G414A was found to be 1 fold; with human C2 L701A it was 16 fold; in the assay with human C2 E450A it was 0 fold; in the assay with human C2 D441A, 6 fold.
